From patent publication US20080274959A1, “Actinomadura Chromoprotein, Apoprotein and Gene Cluster” (Wyeth, priority 2004, published 2008)

Key:
[1] = test system: p53/p21 checkpoint in HCT116 (p21+/+ and p21−/−) cells; assay: Induction of the G1/S (p53/p21) checkpoint, immunoblot; format: cell-based, human
From the text: HCT116 (p21+/+ and p21−/−) cells were exposed to the chromoprotein at various concentrations. […] Activation of the DNA damage checkpoint by the Actinomadura sp. […] 21G792 chromoprotein as shown by the cleavage of poly ADP ribose […] (PARP) (FIG. 23B). This is consistent with the lower IC50 value in the p21−/− cells.

HN5 = assay: Potency against human tumor cell lines: HN5; format: cell-based; conditions: HN5, Head & Neck
DLD1 = assay: Potency against human tumor cell lines: DLD1; format: cell-based; conditions: DLD1, Colon
myelin basic protein = assay: Specificity of digestion: myelin basic protein; format: biochemical
bovine serum albumin = bovine serum albumin (Bos taurus, UniProt P02769); assay: Specificity of digestion: bovine serum albumin; format: biochemical; conditions: neutral/acidic protein
KB-V-1 = assay: IC50 against P-GP expressing cells: KB-V-1; format: cell-based; conditions: KB-V-1, P-GP level +++; mean of two independent experiments
From the text: (§1) Human PGP (MDR1) is an ATP-dependent efflux pump which is capable of transporting many drugs across cell membranes. High level expression of this protein has been linked to multiple drug resistance of tumors. […] The protein component of the chromoprotein probably protects the chromophore from drug efflux mediated by MDR1, and may be responsible for the beneficial antitumor effects in colon cell lines which often express MDR1.

HCT116 cells = assay: Uptake of FITC-tagged protein, fluorescent microscopy / flow cytometry; format: cell-based, human; conditions: FITC-labeled
From the text: To determine the mechanism by which the chromoprotein enters cells and exerts its biological activity, the chromoprotein was labeled with a fluorescent tag (FITC) using EZ-Label fluorescent labeling kit (Pierce Biotechnology), according to the manufacturer's recommendation. […] Uptake of labeled material by HCT116 colon carcinoma cells was studied by fluorescent microscopy.
To determine whether an intact complex of chromophore and apoprotein is required for cellular and nuclear entry, the chromoprotein and apoprotein were labeled with FITC. Uptake of labeled material was studied by fluorescent microscopy.
To determine whether the entry of chromoprotein into cells is mediated by a saturable (e.g. cell surface receptor-dependent) process, HCT116 cells were incubated with FITC-labeled chromoprotein (FIG. 28, right panel) or apoprotein (FIG. 28, left panel) in the absence or presence of 10-fold excess of unlabeled reagent (unlabelled chromoprotein or apoprotein, respectively). Cells were analysed by fluorescent microscopy (left) or flow cytometry (right). […] Numbers in the histograms are mean channel numbers (FITC fluorescence).
Other means by which a protein complex can enter cells is pinocytosis, where caveolae in the surface of the cell pinch off to form pinosomes that are free within the cytoplasm of the cell. Since pinocytosis is an energy-dependent process that requires a functional tubulin cytoskeletal network, we examined the effect of sodium azide, an energy uncoupling agent and nocodazole, an agent which disrupts the tubulin cytoskeleton on cellular uptake. HCT116 cells were treated with FITC-labeled apoprotein in the absence or presence of sodium azide or nocodazole.

p21−/− cells = assay: Sensitivity of isogenic cell lines, p21−/−; format: cell-based, human
From the text: The p53/p21 checkpoint monitors the integrity of the genome and blocks cell cycle progression in the event of DNA damage. Disruption of the checkpoint by deletion of the p21 gene results in failure to arrest in response to DNA damage ultimately leading to cell death through apoptosis. Since loss of this checkpoint is a hallmark of cancer cells, an isogenic pair of cell lines, wherein one pair of the cell line (p21+/+) has an intact p21 gene and one member (p21−/−) has a deletion in the p21 gene, can be used to screen for potential anti-tumor compounds by identifying molecules that preferentially induce apoptosis in p21-deficient cells.
(§2) The Actinomadura sp. 21G792 chromoprotein was added to an isogenic pair of cell lines (p21+/+ and p21−/−).

[2] = test system: HCT116 p21+/+ and −/− cells; assay: COMET assay for DNA damage; format: cell-based, human; conditions: both p21-proficient and p21-deficient HCT116 cells
From the text: A COMET assay obtained from Trevigen, Inc. was used to detect DNA damage. HCT116 p21+/+ and −/− cells were subjected to various amounts of the 21G792 chromoprotein and mitoxantrone.

HT29 = assay: Potency against human tumor cell lines: HT29; format: cell-based; conditions: HT29, Colon
MCF-7 = assay: Potency against human tumor cell lines: MCF-7; format: cell-based; conditions: MCF-7, Breast
histone H1 in HeLa cells = assay: Digestion of histone H1 in HeLa cells, immunoblot; format: cell-based; conditions: overnight at 37° C., anti-histone H1 immunoblot
Description: To study whether the digestion of histones by the chromoprotein occurs in intact cells, HeLa cells were incubated with compounds overnight at 37° C. Cell lysates were analysed by SDS-PAGE and protein immunoblotting using anti-histone H1 antibodies (Santa Cruz Biotechnologies). […] This activity can contribute to antitumor effects by digesting histones in chromatin, making the DNA more accessible for cleavage. This appears to be a unique activity of the chromoprotein enediynes.

SW620 = assay: Potency against human tumor cell lines: SW620; format: cell-based; conditions: SW620, Colon
KB = assay: IC50 against P-GP expressing cells: KB; format: cell-based; conditions: P-GP level −, mean of two independent experiments
From the text: as §1

HCT116 = assay: Potency against human tumor cell lines: HCT116; format: cell-based; conditions: HCT116, Colon
Description: as §2

Human PGP (MDR1) = target: T1, Human PGP (MDR1) (Homo sapiens, UniProt P08183); assay: Transport by P-GP (MDR-1); format: cell-based; conditions: judged from IC50 in KB, KB-8-5, KB-V-1 cells
T1 construct: endogenous in cells; parental KB is P-GP negative
From the text: as §1

T1 sequence (P08183 whole entry): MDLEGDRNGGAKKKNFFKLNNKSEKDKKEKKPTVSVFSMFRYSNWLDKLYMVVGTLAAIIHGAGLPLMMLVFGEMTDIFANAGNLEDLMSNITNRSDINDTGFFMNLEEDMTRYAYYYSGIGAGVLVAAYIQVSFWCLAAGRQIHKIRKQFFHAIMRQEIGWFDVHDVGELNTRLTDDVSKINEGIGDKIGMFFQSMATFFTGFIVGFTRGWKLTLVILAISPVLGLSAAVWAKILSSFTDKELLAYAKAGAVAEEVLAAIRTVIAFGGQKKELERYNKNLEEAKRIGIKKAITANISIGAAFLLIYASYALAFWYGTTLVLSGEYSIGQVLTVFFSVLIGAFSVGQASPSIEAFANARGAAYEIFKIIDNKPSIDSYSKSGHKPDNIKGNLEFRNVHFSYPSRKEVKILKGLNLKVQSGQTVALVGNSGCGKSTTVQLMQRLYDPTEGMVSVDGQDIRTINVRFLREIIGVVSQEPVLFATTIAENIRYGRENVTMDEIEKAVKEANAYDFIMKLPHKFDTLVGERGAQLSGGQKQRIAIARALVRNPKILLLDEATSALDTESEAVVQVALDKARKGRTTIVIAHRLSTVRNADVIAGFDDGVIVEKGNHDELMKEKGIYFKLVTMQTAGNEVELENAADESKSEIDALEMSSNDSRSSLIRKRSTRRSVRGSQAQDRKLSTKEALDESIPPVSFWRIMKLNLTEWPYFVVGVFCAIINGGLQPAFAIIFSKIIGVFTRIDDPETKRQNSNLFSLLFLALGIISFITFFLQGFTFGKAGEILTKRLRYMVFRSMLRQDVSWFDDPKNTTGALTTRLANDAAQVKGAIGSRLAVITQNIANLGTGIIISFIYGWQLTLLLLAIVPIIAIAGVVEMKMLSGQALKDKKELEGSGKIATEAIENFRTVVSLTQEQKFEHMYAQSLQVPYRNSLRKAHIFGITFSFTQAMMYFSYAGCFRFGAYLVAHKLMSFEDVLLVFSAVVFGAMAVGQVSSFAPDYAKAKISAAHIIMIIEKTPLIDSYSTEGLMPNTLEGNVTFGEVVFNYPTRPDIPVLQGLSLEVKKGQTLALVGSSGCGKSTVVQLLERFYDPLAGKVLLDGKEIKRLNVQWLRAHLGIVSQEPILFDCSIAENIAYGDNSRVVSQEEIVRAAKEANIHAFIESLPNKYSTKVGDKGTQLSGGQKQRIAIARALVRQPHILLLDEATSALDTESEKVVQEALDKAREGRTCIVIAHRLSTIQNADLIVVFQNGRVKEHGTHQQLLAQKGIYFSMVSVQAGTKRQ
Sequence of bovine serum albumin (P02769 25-607): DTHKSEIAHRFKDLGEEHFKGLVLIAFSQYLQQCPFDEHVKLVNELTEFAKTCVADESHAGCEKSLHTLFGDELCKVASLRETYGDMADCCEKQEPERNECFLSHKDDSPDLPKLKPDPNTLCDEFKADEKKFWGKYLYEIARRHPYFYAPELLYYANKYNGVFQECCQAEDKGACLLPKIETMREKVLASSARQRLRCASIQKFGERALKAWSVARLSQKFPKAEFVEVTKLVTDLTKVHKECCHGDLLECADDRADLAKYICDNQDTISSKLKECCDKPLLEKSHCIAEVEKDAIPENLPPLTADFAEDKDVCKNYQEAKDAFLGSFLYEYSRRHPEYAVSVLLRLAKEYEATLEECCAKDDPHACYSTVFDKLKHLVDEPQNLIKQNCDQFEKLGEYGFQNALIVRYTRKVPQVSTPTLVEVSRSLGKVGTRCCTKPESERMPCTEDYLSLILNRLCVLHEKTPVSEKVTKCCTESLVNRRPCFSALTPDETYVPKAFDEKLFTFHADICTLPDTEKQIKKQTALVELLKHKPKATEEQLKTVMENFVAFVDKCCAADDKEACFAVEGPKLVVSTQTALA

B1: Actinomadura sp. 21G792 chromoprotein: non-covalent complex of an apoprotein and a chromophore comprising a nine-membered enediyne, produced by Actinomadura sp. 21G792 (NRRL 30778) (protein)
chain: DTVTVNYDCVGYPSDIAVTIDAPATAGVGDTATFEVSSVVTTGAPQDLPAGEVVTDMAIVVGGAQSGTITASGLTNEATPAGQPVNMVGGEAQITFTSAGSVTFTPSTTTQVDNGAQCTVVGEAPVGATTVVS
[1]
  induction of the p21 protein: seen in the p21+/+ cells only
  phosphorylation of serine-15 of p53: phosphorylation of the serine-15 amino acid residue in p53
[1]; HCT116 p21+/+ and p21−/−, various concentrations
  activation of the p53 checkpoint: activation of the p53 checkpoint for all tested concentrations
[1]; p21−/− compared with p21+/+ cells
  induction of apoptosis (PARP cleavage): preferentially observed in p21−/− cells
HN5
  IC50: 4 ng/mL
DLD1
  IC50: 8 µg/mL
Myelin basic protein
  cleavage of myelin basic protein: cleaves
Bovine serum albumin
  cleavage of bovine serum albumin: not neutral/acidic proteins such as bovine serum albumin
KB-V-1
  IC50: 142 ng/mL
HCT116 cells
  biological activity after FITC labeling: No loss of biological activity
  uptake, apoprotein compared with chromoprotein: similar
HCT116 cells; incubation 3-6 hours, fluorescent microscopy
  cellular localisation of label: Most of the label appeared in the cytoplasm
HCT116 cells; microscopy or flow cytometry
  competition of uptake by 10-fold excess of unlabeled reagent: No competition of label
p21−/− cells; IC50 p21+/+ versus p21−/−
  Selectivity Ratio: 13
p21−/− cells; p21−/− isogenic cell line, Mean ± SD, n = 3
  IC50: 7 ± 2 µg/mL
p21−/− cells; text statement of the selectivity
  IC50 higher for p21+/+ cells than for p21−/− cells: 13 fold
[2]
  concentration at which dose-dependent DNA strand breaks occur: > 100 ng/mL
HT29
  IC50: 8 ng/mL
MCF-7
  IC50: 2 ng/mL
Histone H1 in HeLa cells
  histone H1 in cells after incubation: reduced histone H1 in cells
SW620
  IC50: 2 ng/mL
KB
  IC50: 10 ng/mL
HCT116
  IC50: 1 µg/mL
Human PGP (MDR1)
  MDR1 substrate: poor MDR1 substrate
